According to patent US20070219116A1 (TROPHOGEN, published 2007):

What was measured:
rat LH receptor = molecular target: T1, rat LH receptor (rat, UniProt P16235 27-700, limits assumed); assay: not described; data not shown
T1 construct: the form used in the assay is not described; also called rat luteinizing hormone receptor

human LH receptor = molecular target: T2, human LH receptor (human, UniProt P22888 27-699, limits assumed); assay: not described; data not shown
T2 construct: the form used in the assay is not described; also called human luteinizing hormone (receptor)

human FSH receptor = molecular target: T3, human FSH receptor (human, UniProt P23945 18-695); assay: cell-based or functional assay
T3 sequence: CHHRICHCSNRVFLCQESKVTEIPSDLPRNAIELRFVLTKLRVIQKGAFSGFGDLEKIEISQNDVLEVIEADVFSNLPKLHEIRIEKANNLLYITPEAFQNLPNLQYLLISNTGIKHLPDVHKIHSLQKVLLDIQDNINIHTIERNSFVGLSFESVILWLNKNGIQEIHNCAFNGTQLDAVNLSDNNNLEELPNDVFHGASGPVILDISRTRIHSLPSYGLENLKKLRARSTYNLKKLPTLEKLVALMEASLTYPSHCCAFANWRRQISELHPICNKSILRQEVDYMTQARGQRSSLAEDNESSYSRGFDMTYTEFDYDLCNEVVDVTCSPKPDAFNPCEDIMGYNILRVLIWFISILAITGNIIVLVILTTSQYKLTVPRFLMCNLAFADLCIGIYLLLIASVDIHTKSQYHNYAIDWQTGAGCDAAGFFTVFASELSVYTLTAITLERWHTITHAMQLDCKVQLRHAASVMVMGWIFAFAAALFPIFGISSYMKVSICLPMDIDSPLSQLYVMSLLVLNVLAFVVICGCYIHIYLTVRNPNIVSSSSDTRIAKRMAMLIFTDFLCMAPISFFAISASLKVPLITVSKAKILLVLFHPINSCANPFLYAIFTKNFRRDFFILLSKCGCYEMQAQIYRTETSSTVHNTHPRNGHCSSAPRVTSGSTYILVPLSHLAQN

T1 sequence (P16235 27-700 limits assumed): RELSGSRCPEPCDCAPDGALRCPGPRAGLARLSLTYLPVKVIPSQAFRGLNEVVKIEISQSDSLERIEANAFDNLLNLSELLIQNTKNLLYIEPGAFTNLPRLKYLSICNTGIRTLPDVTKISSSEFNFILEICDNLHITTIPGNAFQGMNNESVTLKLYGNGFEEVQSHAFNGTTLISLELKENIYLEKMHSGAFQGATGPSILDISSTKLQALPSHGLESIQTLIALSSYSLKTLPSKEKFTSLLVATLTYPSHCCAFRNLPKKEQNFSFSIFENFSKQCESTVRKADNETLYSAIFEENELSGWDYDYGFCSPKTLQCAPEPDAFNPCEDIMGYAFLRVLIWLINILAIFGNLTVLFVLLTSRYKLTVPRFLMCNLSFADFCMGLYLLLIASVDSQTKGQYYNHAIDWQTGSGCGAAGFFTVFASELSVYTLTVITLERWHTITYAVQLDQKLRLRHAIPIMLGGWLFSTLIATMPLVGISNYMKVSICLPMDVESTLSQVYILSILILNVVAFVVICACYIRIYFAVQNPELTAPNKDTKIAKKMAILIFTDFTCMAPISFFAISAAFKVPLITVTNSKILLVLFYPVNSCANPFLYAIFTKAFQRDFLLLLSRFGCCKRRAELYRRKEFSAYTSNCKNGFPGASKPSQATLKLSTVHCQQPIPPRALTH
T2 sequence (P22888 27-699 R124G/N312S limits assumed): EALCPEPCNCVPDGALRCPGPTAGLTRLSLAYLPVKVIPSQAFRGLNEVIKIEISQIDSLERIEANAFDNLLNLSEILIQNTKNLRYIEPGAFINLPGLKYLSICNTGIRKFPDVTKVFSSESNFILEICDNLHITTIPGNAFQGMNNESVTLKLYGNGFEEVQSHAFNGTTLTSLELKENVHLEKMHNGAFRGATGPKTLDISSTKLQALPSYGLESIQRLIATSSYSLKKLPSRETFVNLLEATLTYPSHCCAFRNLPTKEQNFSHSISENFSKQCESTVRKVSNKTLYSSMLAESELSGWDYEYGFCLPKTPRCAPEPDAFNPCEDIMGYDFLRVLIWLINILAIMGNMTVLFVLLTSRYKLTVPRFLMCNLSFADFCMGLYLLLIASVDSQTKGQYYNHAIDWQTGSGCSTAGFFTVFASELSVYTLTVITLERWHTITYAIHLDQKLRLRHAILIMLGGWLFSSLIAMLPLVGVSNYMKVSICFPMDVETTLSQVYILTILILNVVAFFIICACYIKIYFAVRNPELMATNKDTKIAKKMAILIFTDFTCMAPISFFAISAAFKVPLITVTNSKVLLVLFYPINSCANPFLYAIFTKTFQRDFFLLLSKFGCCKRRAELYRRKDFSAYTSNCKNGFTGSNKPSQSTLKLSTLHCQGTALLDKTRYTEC

binding result (rat LH receptor): binds
binding result (human LH receptor): no binding
potency, total cAMP production in CHO-FSHR cells, compared to Follistim (wild type FSH) (human FSH receptor): 30 fold
potency, total cAMP production in KGN-FSHR cells, compared to wild type FSH (human FSH receptor): 30 fold
B1: FSH analog TR-4402: alpha(E14R + Q20R + G73R) + betaE4R (ligand)
chain 1: not shown
chain 2: NSCRLTNITIAIEKEECRFCISINTTWCAGYCYTRDLVYKDPARPKIQKTCTFKELVYETVRVPGCAHHADSLYTYPVATQCHCGKCDSDSTDCTVRGLGPSYCSFGEMKE
